According to patent US12723078 (University of Texas, dated 2026):

B1: mAb of B cell clone 93 (supernatant) (antibody, V domains shown)
VH: EQSVEESGGDLVKPGTSLTLTCTASGFSFSGNTICWVRQAPGKRPEWIACIYPSSTSITTYATWAKGRFTVSKTSSTTVTLQMTSLTAADTATYFCARRYAAFLTYGSGAFDPWGPGTLVTISS
VL: ELDLTQTPASVSAAVGGTVTINCQASESIGSALAWYQQKPGQPPKLLIYSASALASGVPSRFKGSGSGTEYTLTISDLECADAATYYCQSYYGSGTTALDTFGGGTEVEIK
notes: rabbit; also called B1-#93
B2: mAb of B cell clone 98 (supernatant) (antibody, V domains shown)
VH: EQSLEESGGDLVKPEGSLTLTCTASGFSFSSSYWICWVRQAPGKGLEWIACVATGSGTTDYASWAKGRFTMSKTSSTTVTLQMTSLTVADTATYFCARIGAFYSFRLWGPGTLVTISS
VL: ELDLTQTPGSVEAAVGGTVTIKCQAGQSIYNYLSWYQQKPGQPPKLLIYSASTLESGVPPRFSGSGSGTEFTLTISDLECADAATYSCQNNYGIGSNYGPGFGGGTEVEIK
notes: rabbit; also called B1-#98
B3: mAb of B cell clone 110 (supernatant) (antibody, V domains shown)
VH: QSLEESGGDLVKPEGSLTLTCTASGFSFSSSYWICWVRQAPGKGLEWIGCIYAGNSANTYYASWAKGRFTISKTSSTTVTLQLTSLTAADTATYFCASRNGGAPDGLNLWGPGTLVTISS
VL: ELDLTQTPASVEAAVGGTVTIKCQASLNINSWLAWYQQKPGQPPKLLISYTSSLASGVPSRFKGSGSGTEYTLTINDLECADAATYYCQTTYFGTNGGGFGGGTEVEIK
notes: rabbit; also called B1-#110
B4: mAb of B cell clone 115 (supernatant) (antibody, V domains shown)
VH: EQSVKESGGGLVQPEGSLTLTCTASGFSFSSSYWICWVRQAPGKGLEWIGCIATGTGSTYYANWVNGRFTMSKPSSTTVTLQMTTLTAADTATYFCARGGGYWSFSLWGPGTLVTISS
VL: ELVMTQTPSSVEAAVGGTVTNKCQASEDIYSNLAWYQQKPGQPPKLLIYGATTLASGVPSRFKGSGSGTEFTLTISDLECADAATYYCQAESNDVWAFGGGTEVVVK
notes: rabbit
B5: mAb of B cell clone 117 (supernatant) (antibody, V domains shown)
VH: EQSLEESGGDLVKPEGSLTLTCTASGFSFSSSYYMCWIRQPPGRGLEWLACIYTGSDSTYYAPWAKGRFTISRTSSTTVTLQMTSLTAADTATYFCAGDWDYADAAGYYVARGFNLWGPGTLVTISS
VL: ELDLTQTPASVSAAVGGTVTIKCQASEDIYSNLAWYQQKPGQPPKLLIYKASTLASGVPPRFKGSGSGTEYTLTISGVQCDDAATYACQTTYWTTTDDNPFGGGTEVEIK
notes: rabbit
B6: mAb of B cell clone 125 (supernatant) (antibody, V domains shown)
VH: EQSLEESGGGLVQPEGSLTLTCTASGFSFTKNYYMCWVRQAPGKGLEWIGCIYAGSTNTFYASWAKGRFTISKASSTTVDLKMTSLTVADTATYFCARDFVSYLNLWGPGTLVTVSS
VL: ELDLTQTPSSSSAAVGGTVTINCQASQSVYNKNYLSWFQQKPGQPPKLLIYYASTLASGVPSRFKGSGSGTEFTLTISDVVCDDAATYYCAAYKGVSDDGISFGGGTEVEIK
notes: rabbit
B7: mAb of B cell clone 128 (supernatant) (antibody, V domains shown)
VH: RAVGKESGGDLVTLGGSLKLSCKASGIDLSNFYYMCWVRQAPGKGLEWIGCVASDSSRTHYATWPKGRFTISKTSSTTVTLQMTSLTAADTATYFCARGSGASTNGVWWVMGDGMDLWGPGTLVTVSS
VL: ELDMTQTPSSVSAAVGGTVTIKCQASQSISSYLSWYQQKPGQPPKRLIYKASTLPSGVPPRFKGSGSGTEFTLTISDLECADAATYYCQNNYHSGSSNGGGFAFGGGTQVEIK
notes: rabbit
B8: mAb of B cell clone 154 (supernatant) (antibody, V domains shown)
VH: QSVKESGGDLVKPGASLTLTCKASGFSFSSGHYMYWVRQAPGKGLEWIACIYAGSDTGSTWYASWAKGRFTISKTSSTTVTLQMTSLTAADTATYFCARSSNSYGNYGVSNLWGPGTLVTVSS
VL: ELDLTQTPASVEAAVRGTVTIKCQASQSISYYLAWYQQKPGQPPKVLIYKASTLASGVPPRFKGSGFGTEFTLTISDLECADAATYYCQSTYGRDNNDLFFAFGGGTEVEIK
notes: rabbit
B9: mAb of B cell clone 160 (supernatant) (antibody, V domains shown)
VH: QEQLVESGGGLVQPEGSLTLTCKASGIDFSSGYWICWVRQAPGKGLELIACIFTSSGTTYYASWAKGRFTISKTSSTTVTLQMTSLTAADTATYFCARDIYSYGMDLWGPGTLVTVSS
VL: ELDLTQTPASVSAAVGGTVTIKCQASQSISSSYLAWYQQKPGQPPKLLIYSASSTASGVPSRFKGSGSGTQFTLTISDLECADAATYYCQSTYISSSKYGAVFGGGTELEIK
notes: rabbit; also called B1-#160
B10: mAb of B cell clone 162 (supernatant) (antibody, V domains shown)
VH: QSVKESEGGLVQPGGSLTLSCKASGIDFSSAYMSWVRQAPGKGLEWIGKMRINDRSHYANWVNGRFTISNHNDQNTVELQLNSLTAADTATYFCARIATGTNVDDFWGPGTLVTISS
VL: ELVMTQTASPVSAAVGGTVTISCQSSQSVYSNNWLSWYQQKPGQPPKRLIYKASTLETGVPSRFKGSGSGKQFTLTISDLECDDAATYYCAGGYSGDLYAFGGGTEVVVK
notes: rabbit; also called B1-#162
B11: mAb of B cell clone 167 (supernatant) (antibody, V domains shown)
VH: EQLMEESGGGLVQPEGSLTLTCTASRFSLSNMNVMCWVRQAPGKGLEWIGCINIGGTNIWYASWAKGRFTISKTSSTTVTLQMTSLTVADTATYFCARSYITDRIYDYDFWGPGTLVTISS
VL: ELDMTQTPSPVSAAVGGSVTISCQASQTIYNNKNLAWYQQKPGQPPKLLIYQASKLASGVSSRFSGSGSGTQFTLTISGVQCDDAATYYCQGEFSCSSGDCTTFGGGTEVVVK
notes: rabbit
B12: mAb of B cell clone 170 (supernatant) (antibody, V domains shown)
VH: QSVEESGGGLVKPGASLTLSCTASGFDFSSKYYMWWVRQAPGKGLEWIARIYGGSSDSTDYATWARGRFAISRTSSTTVTLRMTSLTAADTATYFCGRVIDGACGYDLWGPGTLVTVSS
VL: ELDLTQTPASVSAAVGGTVTISCQSSQSVHHSQTVHNNQWLAWYQQKPGQPPKLLIYDASKLASGVPSRFTGSGSGTQFSLTISAVQCDDAATYYCQGGYSYGDVYGFGGGTELEIK
notes: rabbit; also called B1-#170
B13: mAb of B cell clone 173 (supernatant) (antibody, V domains shown)
VH: QSVEESGGDLVKPGASLTLTCTASGFDFSSNAYLCWVRQAPGKGLEWIGCIYDGTSGDTYYANWAKGRFTISRSSSTTVTLQMTSLTAADTATYFCARDTRSSNYYFNLWGPGTLVTISS
VL: ELVLTQTPSSTSAAVGGTVTINCQASQSVDNNKQLSWYQQKPGQPPKQLIYSASKLASGVPSRFKGSGSGTQFTLTISDLECDDAATYYCAGYYYSGSATDAWAFGGATEVEIN
notes: rabbit
B14: mAb of B cell clone 3 (supernatant) (antibody, V domains shown)
VH: QSLEESEGDLVKPEGSLTLTCKASGFDFSSDAMCWVRQAPGKGLEWIGCIYNGDEITDHASWAKGRFTISKTSPTTVTLQMTSLTVADTATYFCARAVYSDGGAGYPYMYGMDLWGPGTLVTVSS
VL: ELDMTQTPASVEAAVGGTVTIKCQASQNIYSYLVWYQQKPGQPPKLLISKASTLASGVSSRFKGSGSGTEFTLTINDLECADAATYYCQTNYFSSTSHFGVFTFGGGTELEIK
notes: rabbit; also called B1-#3
B15: mAb of B cell clone 175 (supernatant) (antibody, V domains shown)
VH: ESEGGLVKPGGTLTLTCKVSGIDFNSYKYYYMCWVRQAPGKGLEWIGCMSTASRNIYYASWAKGRFTISETSSTSVTLQMTTLTAADTATYFCAKSHGGDGGYGVVLWGPGTLVTISS
VL: ELVMTQTPSSVSAAVGDTLTINCQASETISNRLAWYQQKPGQPPKLLIYSASTLESGVPSRFRGSGSGTQFTLTISDLECADAATYYCQSIRSSSGVVHPNTFGGGTEVEIK
notes: rabbit

Target: T1, human LILRB1 recombinant protein (human, UniProt Q8NHL6 24-461)
T1 construct: The ELISA method says only 'LILRB1 recombinant proteins' coated on plates; also called leukocyte immunoglobulin-like receptor subfamily B member 1
T1 sequence (Q8NHL6 24-461 limits assumed): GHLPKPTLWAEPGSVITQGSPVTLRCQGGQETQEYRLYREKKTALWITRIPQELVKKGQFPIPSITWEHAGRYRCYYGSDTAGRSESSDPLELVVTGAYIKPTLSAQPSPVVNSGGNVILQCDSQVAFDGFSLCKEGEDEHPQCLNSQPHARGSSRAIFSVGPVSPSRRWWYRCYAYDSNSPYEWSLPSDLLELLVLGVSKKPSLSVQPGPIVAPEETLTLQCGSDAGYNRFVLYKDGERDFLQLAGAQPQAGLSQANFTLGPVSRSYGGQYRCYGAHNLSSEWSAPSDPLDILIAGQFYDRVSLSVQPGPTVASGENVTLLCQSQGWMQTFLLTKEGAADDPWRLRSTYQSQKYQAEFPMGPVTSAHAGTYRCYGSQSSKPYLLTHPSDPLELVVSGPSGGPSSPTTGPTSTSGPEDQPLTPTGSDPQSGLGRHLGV
Assay: ELISA, B cell supernatant

First: B1
Second: B2
The OD450 of the first is lower: 1.72 OD450 for the first, 2.01 OD450 for the second.

Compared with B3, B4 is lower in OD450: 2.31 OD450 for the first, 1.53 OD450 for the second.

First: B5
Second: B6
The OD450 of the first is lower: 2.23 OD450 for the first, 2.43 OD450 for the second.

Going from B7 to B8, the OD450 falls from 2.51 OD450 to 1.98 OD450.

Compared with B9, B10 is higher in OD450: 1.87 OD450 for the first, 2.02 OD450 for the second.

Going from B11 to B12, the OD450 rises from 1.12 OD450 to 2.26 OD450.

Going from B13 to B14, the OD450 falls from 2.14 OD450 to 2.11 OD450.

With B15 the OD450 was 2.02 OD450.
